According to patent publication US20100093090A1, “METHOD AND KIT FOR EFFICIENT REPROGRAMMING OF SOMATIC CELLS” (priority 2008, published 2010):

How the values were obtained:
[1] = system: human adult foreskin fibroblast (hAFF) cells; assay: Human iPS cell generation from fibroblasts by lentiviral transduction of reprogramming factors (colony counting, AP staining, GFP silencing); format: cell-based
Protocol: 5×10^4 cells were plated onto a 10-cm dish. Shown are numbers of total colonies and AP-highly positive colonies (in parenthesis) counted on day 18 post-transduction. “4” indicates the reported four reprogramming factors OCT4 (O), SOX2 (S), KLF4 (K) and c-MYC (M). […] (C-E): Total colony numbers (left panels), highly AP-positive colony numbers (middle panels) and iPS colony numbers (right panels). The colony number shown are those induced from 10^5 cells plated on the feeder cells by different combinations of factors. The results of three independent experiments are shown with different colors. […] Numbers were counted on day 25 post-transduction; (D) The six factors (4PU) combination minus the reported four reprogramming factors, respectively. (Da and Db) Numbers were counted on day 25 post-transduction. (Dc) Numbers were counted on day 35 post-transduction. […] Numbers were counted on day 35 post-transduction.
Lentiviral vector containing OCT4, SOX2, c-MYC, KLF4, UTF1, p53 siRNA and control p53 siRNA respectively (15 μg) together with pMDLg/pRRE, RSV/Rev and VSV-G (FIG. 13 A, B, C) (5 μg for each), were respectively transfected into 293T cells with the Ca3(PO4)2-method in 10-cm dishes and incubated overnight. 12 hours later, the medium was changed and virus was collected after subsequent 36 hours cultivation. Viral supernatant was collected and filtered through 0.45 μm filters (Millipore) and then placed onto target fibroblasts supplemented with 10 ng/μl polybrene (Sigma-Aldrich). Typically, 1×10^5 fibroblasts in a well of 6-well plate were infected with 250 μl viral supernatant of each gene. The viral supernatant was changed with fibroblast culture medium after 12 hours. […] 5-6 days later, the infected cells were collected, counted, and plated onto MEF feeders (typically 2×10^4 to 1×10^5 cells for a 10-cm dish). […] The efficiency to generate iPS cells was calculated according to Takahashi's method, by which the number of cell colonies was counted and divided by the number of cells plated onto feeders (Takahashi et. al., 2007) (FIGS. 1C, 1D, 1E, 5C, and 5D). […]

p53 = assay: Knockdown of p53 expression by p53 shRNA in hAFF; format: cell-based, human; settings: nonsense siRNA as control
[2] = system: iPS cell generation efficiency; assay: iPS cell generation in presence of HDAC inhibitors (VPA, SBHA, Butyrate); format: cell-based
Protocol: FIG. 10. The colony number shown are those induced from 10^4 cells plated on the feeder cells by different combinations of factors. IPS colony numbers were counted on day 25 post-transduction. (O: OCT4; S:SOX2; K: KLF4; G: GFP; P: P53siRNA; U: UTF1). (A) In presence of VPA, iPS cell generation efficiency could be enhanced by UTF1 or P53 siRNA, or their combination. […] VS: VPA+SBHA; VB: VPA+Butyrate. The working concentrations of VPA, SBHA and Butyrate in this study were 0.5 mM, 2 μM, 0.1 mM, respectively.
Recently, it is reported that iPS cells could be generated when contacting with HDAC inhibitors (and/or other compounds) by a much higher efficiency. We further tested whether UTF1 and p53 siRNA would still work in the context of HDAC inhibitors.

[3] = with the four factors, day 25 post-transduction

B1: p53 siRNA: lentiviral pLL3.7-encoded shRNA against p53; DNA sequence encoding it GACTCCAGTGGTAATCTACT (SEQ ID NO: 6 and 7) (nucleic acid)
DNA 1: TGACTCCAGTGGTAATCTACTTCAAGAGAGTAGATTACCACTGGAGTCTTTTTTC
DNA 2: TCGAGAAAAAAGACTCCAGTGGTAATCTACTCTCTTGAAGTAGATTACCACTGGAGTCA
Q: What does the source list for B1?
A: iPS cells obtained out of every 100,000 human adult fibroblast cells after infection ([1]; together with Oct4, Sox2 and Klf4, without c-Myc, about 1 month post-infection, on average): about 30; highly AP-positive colony numbers and iPS colony numbers [1, 3]: did not further exert its effect; total numbers of cell colonies [1, 3]: dramatically enhanced; knockdown of p53 expression (p53): efficient; reprogramming efficiency when VPA was added ([2]; VPA 0.5 mM, 10^4 cells plated, day 25 post-transduction): enhance the reprogramming efficiency significantly; reprogramming efficiency in presence of two HDAC inhibitor combination ([2]; VPA+SBHA or VPA+Butyrate, 0.5 mM, 2 μM, 0.1 mM, day 25): enhances reprogramming efficiency
